Assays:
Assay in all cases: cell-based or functional assay
[1] = molecular target: HIV-1 Env 426c.DM (N460D.N463D), Env-pseudotyped virus produced in 293S GnTI- cells (Man5-enriched) (HIV-1 clade C strain 426c)
[2] = molecular target: HIV-1 Env 426c, Env-pseudotyped virus produced in 293T cells (HIV-1 clade C strain 426c)
[3] = molecular target: HIV-1 426c.TM (N276D/N460D/N463D) Env on Env-pseudotyped virus produced in 293s/GnTI-/- cells (Man5-enrichment) (HIV-1)
[4] = molecular target: CH0505TF Env, Env-pseudotyped virus produced in 293T cells (HIV-1)
[5] = molecular target: HIV-1 426c.DM (N460D/N463D) Env on Env-pseudotyped virus produced in 293s/GnTI-/- cells (Man5-enrichment) (HIV-1)
[6] = molecular target: HIV-1 426c.SM (N276D) Env on Env-pseudotyped virus produced in 293T cells (HIV-1)
[7] = molecular target: HIV-1 Env 426c.TM (N276D.N460D.N463D), Env-pseudotyped virus produced in 293T cells (HIV-1 clade C strain 426c)
[8] = molecular target: CH0505TF.G458Y Env, Env-pseudotyped virus produced in 293T cells (HIV-1)
[9] = molecular target: CH0505TF.gly3.461 Env, Env-pseudotyped virus produced in 293T cells (HIV-1)
[10] = molecular target: CH0505.w4.3 Env, Env-pseudotyped virus produced in 293T cells (HIV-1)
[11] = molecular target: CH0505TF.G458Y Env, Env-pseudotyped virus produced in 293S GnTI- cells (Man5-enriched) (HIV-1)
[12] = molecular target: CH0505TF.gly3.276 Env, Env-pseudotyped virus produced in 293T cells (HIV-1)
[13] = molecular target: CH0505TF.gly3.461 Env, Env-pseudotyped virus produced in 293S GnTI- cells (Man5-enriched) (HIV-1)
[14] = molecular target: CH0505TF Env, Env-pseudotyped virus produced in 293S GnTI- cells (Man5-enriched) (HIV-1)
[15] = molecular target: CH0505TF.gly4 Env, Env-pseudotyped virus produced in 293S GnTI- cells (Man5-enriched) (HIV-1)
[16] = molecular target: CH0505TF.gly3.276 Env, Env-pseudotyped virus produced in 293S GnTI- cells (Man5-enriched) (HIV-1)
[17] = molecular target: HIV-1 clade C strain 426c Env on Env-pseudotyped virus produced in 293T cells (HIV-1)
[18] = molecular target: HIV-1 Env 426c, Env-pseudotyped virus produced in 293S GnTI- cells (Man5-enriched) (HIV-1 clade C strain 426c)
[19] = molecular target: HIV-1 426c.DM (N460D/N463D) Env on Env-pseudotyped virus produced in 293T cells (HIV-1)
[20] = molecular target: HIV-1 Env 426c.SM (N276D), Env-pseudotyped virus produced in 293T cells (HIV-1 clade C strain 426c)
[21] = molecular target: CH0505TF.gly3.197 Env, Env-pseudotyped virus produced in 293S GnTI- cells (Man5-enriched) (HIV-1)
[22] = molecular target: CH0505TF.gly4 Env, Env-pseudotyped virus produced in 293T cells (HIV-1)
[23] = molecular target: HIV-1 Env 426c.SM (N276D), Env-pseudotyped virus produced in 293S GnTI- cells (Man5-enriched) (HIV-1 clade C strain 426c)
[24] = molecular target: HIV-1 Env 426c.TM4 (S278R.G471S.N460D.N463D), Env-pseudotyped virus produced in 293S GnTI- cells (Man5-enriched) (HIV-1 clade C strain 426c)
[25] = molecular target: HIV-1 Env 426c.TM (N276D.N460D.N463D), Env-pseudotyped virus produced in 293S GnTI- cells (Man5-enriched) (HIV-1 clade C strain 426c)
[26] = molecular target: HIV-1 426c.SM (N276D) Env on Env-pseudotyped virus produced in 293s/GnTI-/- cells (Man5-enrichment) (HIV-1)
[27] = molecular target: HIV-1 Env 426c.DM (N460D.N463D), Env-pseudotyped virus produced in 293T cells (HIV-1 clade C strain 426c)
[28] = molecular target: HIV-1 Env 426c.TM4 (S278R.G471S.N460D.N463D), Env-pseudotyped virus produced in 293T cells (HIV-1 clade C strain 426c)
[29] = molecular target: HIV-1 426c.TM (N276D/N460D/N463D) Env on Env-pseudotyped virus produced in 293T cells (HIV-1)
[30] = molecular target: HIV-1 clade C strain 426c Env on Env-pseudotyped virus produced in 293s/GnTI-/- cells (Man5-enrichment) (HIV-1)
[31] = molecular target: CH0505TF.gly3.197 Env, Env-pseudotyped virus produced in 293T cells (HIV-1)

Substance | IC50 (µg/ml) in TZM-bl [1] [µg/mL] | IC50 (µg/ml) in TZM-bl [2] [µg/mL] | ID50/IC50 in TZM-bl [3] [µg/mL] | IC50 (µg/ml) in TZM-bl [4] [µg/mL] | ID50/IC50 in TZM-bl [5] [µg/mL] | ID50/IC50 in TZM-bl [6] [µg/mL] | IC50 (µg/ml) in TZM-bl [7] [µg/mL] | IC50 (µg/ml) in TZM-bl [8] [µg/mL] | IC50 (µg/ml) in TZM-bl [9] [µg/mL] | IC50 (µg/ml) in TZM-bl [10] [µg/mL] | IC50 (µg/ml) in TZM-bl [11] [µg/mL] | IC50 (µg/ml) in TZM-bl [12] [µg/mL] | IC50 (µg/ml) in TZM-bl [13] [µg/mL] | IC50 (µg/ml) in TZM-bl [14] [µg/mL] | IC50 (µg/ml) in TZM-bl [15] [µg/mL] | IC50 (µg/ml) in TZM-bl [16] [µg/mL] | ID50/IC50 in TZM-bl [17] [µg/mL] | IC50 (µg/ml) in TZM-bl [18] [µg/mL] | ID50/IC50 in TZM-bl [19] [µg/mL] | IC50 (µg/ml) in TZM-bl [20] [µg/mL] | further results
PG16 (antibody) | > 5 | > 5 | > 5 | 0.09 | > 5 | > 5 | > 5 | 0.03 | 0.1 | 0.03 | 0.01 | 0.1 | 0.02 | 0.08 | 0.02 | 0.02 | > 5 | > 5 | > 5 | > 5 | IC50 (µg/ml) in TZM-bl [21]: 0.03 µg/mL; IC50 (µg/ml) in TZM-bl [22]: 0.1 µg/mL; IC50 (µg/ml) in TZM-bl [23]: > 5 µg/mL; IC50 (µg/ml) in TZM-bl [24]: > 5 µg/mL; IC50 (µg/ml) in TZM-bl [25]: > 5 µg/mL; ID50/IC50 in TZM-bl [26]: > 5 µg/mL; IC50 (µg/ml) in TZM-bl [27]: > 5 µg/mL; IC50 (µg/ml) in TZM-bl [28]: > 5 µg/mL; ID50/IC50 in TZM-bl [29]: > 5 µg/mL; ID50/IC50 in TZM-bl [30]: > 5 µg/mL; IC50 (µg/ml) in TZM-bl [31]: 0.05 µg/mL
PGT121 (antibody) | 3.4 | > 5 | 3.4 | > 5 | 3.4 | > 5 | > 5 | > 5 | > 5 | > 20 | > 5 | > 5 | > 5 | > 5 | > 5 | > 5 | > 5 | 2.5 | > 5 | > 5 | IC50 (µg/ml) in TZM-bl [21]: > 5 µg/mL; IC50 (µg/ml) in TZM-bl [22]: > 5 µg/mL; IC50 (µg/ml) in TZM-bl [23]: 4.2 µg/mL; IC50 (µg/ml) in TZM-bl [24]: > 5 µg/mL; IC50 (µg/ml) in TZM-bl [25]: 3.4 µg/mL; ID50/IC50 in TZM-bl [26]: 4.2 µg/mL; IC50 (µg/ml) in TZM-bl [27]: > 5 µg/mL; IC50 (µg/ml) in TZM-bl [28]: > 5 µg/mL; ID50/IC50 in TZM-bl [29]: > 5 µg/mL; ID50/IC50 in TZM-bl [30]: 2.5 µg/mL; IC50 (µg/ml) in TZM-bl [31]: > 5 µg/mL
PGT128 (antibody) | > 5 | > 5 | > 5 | > 5 | > 5 | > 5 | > 5 | > 5 | > 5 | > 10 | > 5 | > 5 | > 5 | > 5 | > 5 | > 5 | > 5 | 4.3 | > 5 | > 5 | IC50 (µg/ml) in TZM-bl [21]: > 5 µg/mL; IC50 (µg/ml) in TZM-bl [22]: > 5 µg/mL; IC50 (µg/ml) in TZM-bl [23]: > 5 µg/mL; IC50 (µg/ml) in TZM-bl [24]: > 5 µg/mL; IC50 (µg/ml) in TZM-bl [25]: > 5 µg/mL; ID50/IC50 in TZM-bl [26]: > 5 µg/mL; IC50 (µg/ml) in TZM-bl [27]: > 5 µg/mL; IC50 (µg/ml) in TZM-bl [28]: > 5 µg/mL; ID50/IC50 in TZM-bl [29]: > 5 µg/mL; ID50/IC50 in TZM-bl [30]: 4.3 µg/mL; IC50 (µg/ml) in TZM-bl [31]: > 5 µg/mL
